Data taken from patent US20260152536.

Tests used:
IL-12p70-L4s-TM = IL-12p70-L4s-TM (UniProt P43432)
IL-12p70-L4-TM = IL-12p70-L4-TM (UniProt P43432)
IL-12p70-L5-TM = IL-12p70-L5-TM (UniProt P43432)
IL-12p70-L3-TM = IL-12p70-L3-TM (UniProt P43432)
IL-12p70-L2-TM = IL-12p70-L2-TM (UniProt P43432)
Sequence of IL-12p70-L2-TM (P43432 other isoform, or with tags, fused parts or gaps): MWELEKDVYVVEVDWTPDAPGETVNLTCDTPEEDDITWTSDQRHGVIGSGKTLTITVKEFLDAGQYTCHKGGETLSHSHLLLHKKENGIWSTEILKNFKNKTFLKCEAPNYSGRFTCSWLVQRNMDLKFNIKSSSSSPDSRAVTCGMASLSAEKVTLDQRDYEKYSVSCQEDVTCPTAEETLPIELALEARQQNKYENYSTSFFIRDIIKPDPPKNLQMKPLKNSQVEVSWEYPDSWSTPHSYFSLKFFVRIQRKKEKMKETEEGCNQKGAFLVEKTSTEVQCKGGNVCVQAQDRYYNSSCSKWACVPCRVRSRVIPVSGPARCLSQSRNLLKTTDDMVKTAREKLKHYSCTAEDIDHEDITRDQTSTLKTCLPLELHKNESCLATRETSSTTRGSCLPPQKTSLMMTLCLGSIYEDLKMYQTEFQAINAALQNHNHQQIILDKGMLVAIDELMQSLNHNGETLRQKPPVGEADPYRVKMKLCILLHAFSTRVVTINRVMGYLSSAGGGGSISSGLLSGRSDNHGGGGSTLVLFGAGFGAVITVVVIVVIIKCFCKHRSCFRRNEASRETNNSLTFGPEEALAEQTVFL

Sequence of activated murine MMP2 (matrix metalloprotease 2) (chain, as listed by the source): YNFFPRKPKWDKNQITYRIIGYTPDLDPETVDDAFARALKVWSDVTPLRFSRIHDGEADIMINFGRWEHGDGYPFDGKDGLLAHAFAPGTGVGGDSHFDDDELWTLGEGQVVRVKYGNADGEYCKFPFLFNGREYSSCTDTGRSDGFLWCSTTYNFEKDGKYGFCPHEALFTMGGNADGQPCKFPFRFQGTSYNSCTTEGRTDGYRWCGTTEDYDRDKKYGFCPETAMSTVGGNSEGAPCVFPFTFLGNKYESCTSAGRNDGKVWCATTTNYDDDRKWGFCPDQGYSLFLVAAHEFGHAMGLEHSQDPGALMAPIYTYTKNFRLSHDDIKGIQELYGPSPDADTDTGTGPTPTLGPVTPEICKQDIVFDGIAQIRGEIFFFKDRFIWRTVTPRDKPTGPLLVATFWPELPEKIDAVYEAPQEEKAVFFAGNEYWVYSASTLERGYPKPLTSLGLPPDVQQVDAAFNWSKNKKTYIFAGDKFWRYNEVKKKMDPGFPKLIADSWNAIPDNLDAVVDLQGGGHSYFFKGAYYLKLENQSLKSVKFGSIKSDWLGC
Sequence of IL-12p70-L4s-TM (P43432 other isoform, or with tags, fused parts or gaps): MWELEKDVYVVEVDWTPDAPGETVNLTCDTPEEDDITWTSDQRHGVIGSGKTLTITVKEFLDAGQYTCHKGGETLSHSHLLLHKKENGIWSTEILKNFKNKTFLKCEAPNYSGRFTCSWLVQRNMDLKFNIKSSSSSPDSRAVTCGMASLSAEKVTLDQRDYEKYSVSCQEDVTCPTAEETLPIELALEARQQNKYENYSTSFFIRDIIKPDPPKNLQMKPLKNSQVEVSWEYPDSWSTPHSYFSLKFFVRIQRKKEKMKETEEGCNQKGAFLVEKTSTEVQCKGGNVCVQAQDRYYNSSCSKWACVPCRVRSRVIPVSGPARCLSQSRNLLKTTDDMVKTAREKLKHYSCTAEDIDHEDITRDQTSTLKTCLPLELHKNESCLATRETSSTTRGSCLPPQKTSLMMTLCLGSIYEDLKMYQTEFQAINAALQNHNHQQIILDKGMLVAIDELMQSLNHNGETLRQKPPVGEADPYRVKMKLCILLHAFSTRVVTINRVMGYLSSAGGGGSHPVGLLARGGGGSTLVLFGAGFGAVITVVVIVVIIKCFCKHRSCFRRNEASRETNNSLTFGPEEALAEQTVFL
Sequence of IL-12p70-L3-TM (P43432 other isoform, or with tags, fused parts or gaps): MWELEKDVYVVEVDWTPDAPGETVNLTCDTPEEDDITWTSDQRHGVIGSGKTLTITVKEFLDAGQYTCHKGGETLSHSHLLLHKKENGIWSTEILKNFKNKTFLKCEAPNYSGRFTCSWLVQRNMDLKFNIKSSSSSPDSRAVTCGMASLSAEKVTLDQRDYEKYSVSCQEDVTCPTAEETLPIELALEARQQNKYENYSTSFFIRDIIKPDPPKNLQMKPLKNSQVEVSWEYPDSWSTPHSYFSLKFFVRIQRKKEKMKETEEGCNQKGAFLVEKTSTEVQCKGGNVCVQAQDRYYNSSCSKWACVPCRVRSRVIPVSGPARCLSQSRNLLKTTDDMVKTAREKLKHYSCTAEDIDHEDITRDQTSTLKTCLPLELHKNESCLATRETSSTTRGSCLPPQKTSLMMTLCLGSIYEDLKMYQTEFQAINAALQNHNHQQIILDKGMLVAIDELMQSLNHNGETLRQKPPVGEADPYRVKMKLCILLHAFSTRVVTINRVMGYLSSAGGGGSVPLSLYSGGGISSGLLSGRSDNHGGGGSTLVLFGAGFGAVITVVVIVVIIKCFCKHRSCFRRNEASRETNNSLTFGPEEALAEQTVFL
Sequence of IL-12p70-L4-TM (P43432 other isoform, or with tags, fused parts or gaps): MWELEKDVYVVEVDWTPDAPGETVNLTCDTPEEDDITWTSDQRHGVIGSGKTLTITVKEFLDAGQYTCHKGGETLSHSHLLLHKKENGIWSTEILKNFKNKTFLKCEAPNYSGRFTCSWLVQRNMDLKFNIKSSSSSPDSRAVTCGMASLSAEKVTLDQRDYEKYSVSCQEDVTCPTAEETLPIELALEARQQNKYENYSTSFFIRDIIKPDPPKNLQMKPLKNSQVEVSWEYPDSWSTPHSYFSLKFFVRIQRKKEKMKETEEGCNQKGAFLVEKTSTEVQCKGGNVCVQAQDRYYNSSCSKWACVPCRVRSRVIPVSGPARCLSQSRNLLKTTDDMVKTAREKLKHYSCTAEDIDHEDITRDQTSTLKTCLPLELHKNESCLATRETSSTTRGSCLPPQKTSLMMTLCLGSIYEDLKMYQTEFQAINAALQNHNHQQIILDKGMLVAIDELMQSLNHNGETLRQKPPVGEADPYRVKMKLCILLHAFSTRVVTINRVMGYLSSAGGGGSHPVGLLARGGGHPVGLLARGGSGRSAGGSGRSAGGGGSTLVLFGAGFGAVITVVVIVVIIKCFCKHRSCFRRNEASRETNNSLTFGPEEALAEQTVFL
Sequence of IL-12p70-L5-TM (P43432 other isoform, or with tags, fused parts or gaps): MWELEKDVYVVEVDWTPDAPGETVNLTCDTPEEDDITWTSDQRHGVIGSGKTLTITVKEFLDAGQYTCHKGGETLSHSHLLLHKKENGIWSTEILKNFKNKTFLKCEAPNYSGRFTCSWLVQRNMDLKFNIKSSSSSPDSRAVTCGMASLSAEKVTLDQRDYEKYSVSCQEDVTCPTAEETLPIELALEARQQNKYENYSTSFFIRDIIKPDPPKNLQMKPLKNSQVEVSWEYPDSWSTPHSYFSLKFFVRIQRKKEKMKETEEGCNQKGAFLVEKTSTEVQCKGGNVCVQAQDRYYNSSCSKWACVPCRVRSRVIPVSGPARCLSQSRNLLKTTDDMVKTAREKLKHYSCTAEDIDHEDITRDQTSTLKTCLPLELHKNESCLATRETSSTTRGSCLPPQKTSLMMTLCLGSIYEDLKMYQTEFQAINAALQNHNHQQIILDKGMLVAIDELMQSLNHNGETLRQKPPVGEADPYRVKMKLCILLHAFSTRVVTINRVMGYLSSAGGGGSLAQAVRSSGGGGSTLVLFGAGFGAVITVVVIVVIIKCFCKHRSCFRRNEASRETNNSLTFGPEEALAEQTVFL

activated murine MMP2 (matrix metalloprotease 2)
release of cleaved (therefore soluble) IL-12p70 into the supernatant, ELISA (IL-12p70-L4s-TM): a time-dependent release of IL-12p70 was observed | release of cleaved (therefore soluble) IL-12p70 into the supernatant, ELISA (IL-12p70-L4-TM): a time-dependent release of IL-12p70 was observed | release of cleaved (therefore soluble) IL-12p70 into the supernatant, ELISA (IL-12p70-L5-TM): a time-dependent release of IL-12p70 was observed | release of cleaved (therefore soluble) IL-12p70 into the supernatant, ELISA (IL-12p70-L3-TM): a time-dependent release of IL-12p70 was observed | release of cleaved (therefore soluble) IL-12p70 into the supernatant, ELISA (IL-12p70-L2-TM): a time-dependent release of IL-12p70 was observed
